Measurements published in IntAct's records for PubMed 31296862.

B1: Type IV methyl-directed restriction enzyme EcoKMcrB subunit (Escherichia coli (strain K12)), P15005 (parent)
chain: MESIQPWIEKFIKQAQQQRSQSTKDYPTSYRNLRVKLSFGYGNFTSIPWFAFLGEGQEASNGIYPVILYYKDFDELVLAYGISDTNEPHAQWQFSSDIPKTIAEYFQATSGVYPKKYGQSYYACSQKVSQGIDYTRFASMLDNIINDYKLIFNSGKSVIPPMSKTESYCLEDALNDLFIPETTIETILKRLTIKKNIILQGPPGVGKTFVARRLAYLLTGEKAPQRVNMVQFHQSYSYEDFIQGYRPNGVGFRRKDGIFYNFCQQAKEQPEKKYIFIIDEINRANLSKVFGEVMMLMEHDKRGENWSVPLTYSENDEERFYVPENVYIIGLMNTADRSLAVVDYALRRRFSFIDIEPGFDTPQFRNFLLNKKAEPSFVESLCQKMNELNQEISKEATILGKGFRIGHSYFCCGLEDGTSPDTQWLNEIVMTDIAPLLEEYFFDDPYKQQKWTNKLLGDS
partner: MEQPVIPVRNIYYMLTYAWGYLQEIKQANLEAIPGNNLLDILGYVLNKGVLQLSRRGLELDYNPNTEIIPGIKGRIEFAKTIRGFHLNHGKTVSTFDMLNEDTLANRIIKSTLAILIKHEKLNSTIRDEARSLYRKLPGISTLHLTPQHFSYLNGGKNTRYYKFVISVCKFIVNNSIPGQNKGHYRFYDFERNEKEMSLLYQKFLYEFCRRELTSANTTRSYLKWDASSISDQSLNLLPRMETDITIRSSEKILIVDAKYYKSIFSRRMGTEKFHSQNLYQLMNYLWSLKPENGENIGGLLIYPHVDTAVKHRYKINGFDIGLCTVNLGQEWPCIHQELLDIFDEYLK

Variants of: B1
Details: with mcrc_ecoli mcrC

effect of a mutation on the interaction	Variant
with no effect	MESIQPWIEKFIKQAQQQRSQSTKDYPTSYRNLRVKLSFGYGNFTSIPWFAFLGEGQEASNGIYPVILYYKDFDELVLAYGISDTNEPHAQWQFSSDIPKTIAEYFQATSGVYPKKYGQSYYACSQKVSQGIDYTRFASMLDNIINDYKLIFNSGKSVIPPMSKTESYCLEDALNDLFIPETTIETILKRLTIKKNIILQGPPGVGKTFVARRLAYLLTGEKAPQRVNMVQFHQSYSYEDFIQGYRPNGVGFRRKDGIFYNFCQQAKEQPEKKYIFIIDEINRANLSKVFGEVMMLMAHDKRGENWSVPLTYSENDEERFYVPENVYIIGLMNTADRSLAVVDYALRRRFSFIDIEPGFDTPQFRNFLLNKKAEPSFVESLCQKMNELNQEISKEATILGKGFRIGHSYFCCGLEDGTSPDTQWLNEIVMTDIAPLLEEYFFDDPYKQQKWTNKLLGDS [E298A]
disrupting interaction strength	MESIQPWIEKFIKQAQQQRSQSTKDYPTSYRNLRVKLSFGYGNFTSIPWFAFLGEGQEASNGIYPVILYYKDFDELVLAYGISDTNEPHAQWQFSSDIPKTIAEYFQATSGVYPKKYGQSYYACSQKVSQGIDYTRFASMLDNIINDYKLIFNSGKSVIPPMSKTESYCLEDALNDLFIPETTIETILKRLTIKKNIILQGPPGVGKTFVARRLAYLLTGEKAPQRVNMVQFHQSYSYEDFIQGYRPNGVGFRRKDGIFYNFCQQAKEQPEKKYIFIIDEINRANLSKVFGEVMMLMEHDKRGENWSVPLTYSENDEERFYVPENVYIIGLMNTADRSLAVVDYALRARFSFIDIEPGFDTPQFRNFLLNKKAEPSFVESLCQKMNELNQEISKEATILGKGFRIGHSYFCCGLEDGTSPDTQWLNEIVMTDIAPLLEEYFFDDPYKQQKWTNKLLGDS [R348A]
disrupting interaction strength	MESIQPWIEKFIKQAQQQRSQSTKDYPTSYRNLRVKLSFGYGNFTSIPWFAFLGEGQEASNGIYPVILYYKDFDELVLAYGISDTNEPHAQWQFSSDIPKTIAEYFQATSGVYPKKYGQSYYACSQKVSQGIDYTRFASMLDNIINDYKLIFNSGKSVIPPMSKTESYCLEDALNDLFIPETTIETILKRLTIKKNIILQGPPGVGKTFVARRLAYLLTGEKAPQRVNMVQFHQSYSYEDFIQGYRPNGVGFRRKDGIFYNFCQQAKEQPEKKYIFIIDEINRANLSKVFGEVMMLMEHDKRGENWSVPLTYSENDEERFYVPENVYIIGLMNTADRSLAVVDYALRRAFSFIDIEPGFDTPQFRNFLLNKKAEPSFVESLCQKMNELNQEISKEATILGKGFRIGHSYFCCGLEDGTSPDTQWLNEIVMTDIAPLLEEYFFDDPYKQQKWTNKLLGDS [R349A]
